In paper PMC3821027 one finds Kd data, which are given here for one substance.

Read-outs that look alike come from different tables or passages of the source.

Data set [1] has as its system rCTS (TRX-L1 ORF2p CTS, wild type) (Homo sapiens (LRE1 / L1.2 element, pSM42)). The experiment in a line: EMSA.
Data set [2] shares this test system. The experiment in a line: EMSA. The source holds these as a separate data set.

For the substance 380 nt L1 3'UTR RNA, the Kd came to 57 nM in data set [1] and 63 nM in data set [2].
